Residue numbers refer to the chain shown, from its start. In names and notes the source's numbering stands. Values belong to the binder of their own block, whether it stands above or below them.
Legend:
[1] = biological target: T1, αVβ5/Hsp90α complex (reconstituted from recombinant human αVβ5 ectodomain and recombinant human Hsp90α) (human, UniProt P06756 32-991; P18084 24-717; P07900 2-732, glycosylated); test: fluorescence anisotropy competition: 50 nM A488-irisin-His probe and 125 nM αVβ5 (as αVβ5/Hsp90α complex), unlabeled untagged irisin varied 0-6000 nM
T1 construct: range 32-991;range 24-717;mature; also called integrin/Hsp90α complex
Excerpt: (§1) The domain boundaries are as follows: αV, 32-991; β5, 24-717.

[2] = biological target: T1, αVβ5/Hsp90α complex (reconstituted from …); test: fluorescence anisotropy competition: unlabeled WT irisin (0 to 6000 nM) against the labelled WT irisin probe on the αVβ5/Hsp90 complex; black curve
[3] = biological target: T1, αVβ5/Hsp90α complex (reconstituted from …); test: fluorescence anisotropy competition, 50 nM A488-irisin-His and 125 nM αVβ5/Hsp90α, varied unlabeled untagged irisin (FIG. 1H)
Excerpt: as §1

[4] = biological target: T1, αVβ5/Hsp90α complex (reconstituted from …); test: fluorescence anisotropy competition: unlabeled N45Q (0 to 6000 nM) against the labelled WT irisin probe on the αVβ5/Hsp90 complex; grey curve
[5] = biological target: T2, recombinant human integrin αVβ5 ectodomain (human, UniProt P06756 32-991; P18084 24-717, glycosylated with heterogeneous glycans); test: fluorescence anisotropy, direct binding: labelled irisin N45Q with varied aVß5 concentration (0 to 1000 nM); grey curve and grey label
T2 construct: range 32-991;range 24-717; Used in the solution assays (anisotropy, MST, HDX-MS, FRET); An introduced Cys and the rest of the HRV3C site would remain after cleavage; also called αVβ5 alone; αVβ5/Mn2+

[6] = biological target: T2, recombinant human integrin αVβ5 …; test: fluorescence anisotropy, 50 nM A488-irisin-His, αVβ5 in 1 mM MnCl2 (FIG. 4D)
[7] = biological target: T3, clasped and tagged αVβ5 (recombinant human αVβ5 ectodomain with C-terminal coiled-coil clasp and affinity … (human, UniProt P06756 32-991; P18084 24-717, glycosylated); test: BLI (Octet RED384), clasped and tagged αVβ5 on streptavidin sensors, 1 mM MgCl2 and 1 mM CaCl2; affinity-purified αVβ5 preparation that still held co-purified Hsp90α (FIG. 1B)
T3 construct: range 32-991;range 24-717; Used in BLI (streptavidin sensors) and TALON pull-downs; also called clasped αVβ5; immobilized clasped αVβ5; not shown: introduced Cys, HRV3C site, acidic α-helical coiled-coil and twin Strep-II tag; introduced Cys, HRV3C site, basic α-helical coiled-coil and 8xHis tag
Method: as §1
Biolayer Inferometry (BLI) measurements were conducted by Octet RED384. […] Data analysis HT software was used for the fitting and Kd calculations.

[8] = biological target: T2, recombinant human integrin αVβ5 …; test: fluorescence anisotropy binding assay with labelled irisin, αVβ5 varied 0-1000 nM as the positive curve beside the Hsp90α curves; buffer and activation state of αVβ5 not given in the legend
[9] = biological target: T2, recombinant human integrin αVβ5 …; test: fluorescence anisotropy, direct binding: labelled irisin WT with varied aVß5 concentration (0 to 1000 nM); black curve and black label
[10] = biological target: T1, αVβ5/Hsp90α complex (reconstituted from …); test: summary sentence of Example 2: αVβ5 receptor activated by eHsp90α; αVβ5 activated by eHsp90α; rounded summary value
[11] = biological target: T1, αVβ5/Hsp90α complex (reconstituted from …); test: fluorescence anisotropy, 50 nM A488-irisin-His, varied αVβ5/Hsp90α complex, 1 mM MgCl2 and 1 mM CaCl2 (FIG. 1G)
Excerpt: as §1

[12] = biological target: T1, αVβ5/Hsp90α complex (reconstituted from …); test: fluorescence anisotropy competition: 50 nM A488-irisin-His probe and 125 nM αVβ5 (as αVβ5/Hsp90α complex), unlabeled irisin-His varied 0-6000 nM
Excerpt: as §1

[13] = biological target: T2, recombinant human integrin αVβ5 …; test: fluorescence anisotropy competition: 50 nM A488-irisin-bac probe and 1000 nM αVβ5, unlabeled irisin-mam (irisin-His) varied 0-4000 nM
[14] = biological target: T1, αVβ5/Hsp90α complex (reconstituted from …); test: fluorescence anisotropy, 50 nM A488-irisin-His, αVβ5/Hsp90α complex in 1 mM MgCl2 and 1 mM CaCl2 (FIG. 4D)
[15] = biological target: T2, recombinant human integrin αVβ5 …; test: fluorescence anisotropy competition, 50 nM A488-irisin-bac and 1000 nM αVβ5, varied unlabeled irisin-mam (irisin-His) (FIG. 7E); competition, unlabeled irisin-mam vs A488-irisin-bac (FIG. 7E)
[16] = biological target: T1, αVβ5/Hsp90α complex (reconstituted from …); test: fluorescence anisotropy competition, 50 nM A488-irisin-His and 125 nM αVβ5/Hsp90α, varied unlabeled irisin-His (FIG. 1H)
Excerpt: as §1

[17] = biological target: T4, recombinant human Hsp90α (purified from E. coli, untagged) (human, UniProt P07900 2-732); test: fluorescence anisotropy binding assay with labelled irisin, Hsp90α without nucleotide or charged with ATP, AMP-PNP or ADP varied 0-2500 nM
T4 construct: mature; Tested as Apo and as ATP-, AMP-PNP- and ADP-charged forms; also called eHsp90α; Hsp90α-Apo

[18] = biological target: T2, recombinant human integrin αVβ5 …; test: fluorescence anisotropy, A488-irisin-bac, varied αVβ5, 1 mM MnCl2 (FIG. 7D); direct binding, A488-irisin-bac (FIG. 7D)
[19] = biological target: T2, recombinant human integrin αVβ5 …; test: fluorescence anisotropy, A488-irisin-bac, αVβ5 varied 0-6000 nM, 1 mM MnCl2
[20] = biological target: T2, recombinant human integrin αVβ5 …; test: fluorescence anisotropy competition, 50 nM A488-irisin-WT (bacterial) and 1000 nM αVβ5, varied unlabeled irisin-WT (FIG. 7F); competition, wild type bacterial dimer, run beside R75E (FIG. 7F)
[21] = biological target: T2, recombinant human integrin αVβ5 …; test: fluorescence anisotropy competition: 50 nM A488-irisin-WT probe and 1000 nM αVβ5, unlabeled irisin-WT varied 0-4000 nM
[22] = biological target: T2, recombinant human integrin αVβ5 …; test: fluorescence anisotropy competition: 50 nM A488-irisin-bac probe and 1000 nM αVβ5, unlabeled irisin-bac varied 0-4000 nM
[23] = biological target: T2, recombinant human integrin αVβ5 …; test: fluorescence anisotropy, compared with irisin-mam on αVβ5
[24] = biological target: T2, recombinant human integrin αVβ5 …; test: fluorescence anisotropy competition, 50 nM A488-irisin-bac and 1000 nM αVβ5, varied unlabeled irisin-bac (FIG. 7E); competition, unlabeled irisin-bac vs A488-irisin-bac (FIG. 7E)
[25] = biological target: T2, recombinant human integrin αVβ5 …; test: fluorescence anisotropy competition, 50 nM A488-irisin-WT (bacterial) and 1000 nM αVβ5, varied unlabeled irisin-R75E (FIG. 7F); competition, R75E monomer mutant (FIG. 7F)
[26] = biological target: T2, recombinant human integrin αVβ5 …; test: fluorescence anisotropy competition: 50 nM A488-irisin-WT probe and 1000 nM αVβ5, unlabeled irisin-R75E varied 0-4000 nM

IC50 [1]: 477 nM
IC50 [2]: 440 nM
Ki [2]: 56 nM
Kd [3]: 50 nM
B1: untagged irisin (wild-type, glycosylated recombinant irisin from mammalian cells) (ligand)
chain: DSPSAPVNVTVRHLKANSAVVSWDVLEDEVVIGFAISQQKKDVRMLRFIQEVNTTTRSCALWDLEEDTEYIVHVQAISIQGQSPASEPVLFKTPREAEKMASKNKDEVTMKE
modifications: N-glycosylated at N36, N45 and N81 (numbers as printed)
notes: also called unlabeled and untagged irisin; WT irisin

IC50 [4]: 35 nM
Ki [4]: 9 nM
Kd [5]: 32 nM
B2: irisin N45Q mutant (irisin glycosylation mutant, recombinant, from mammalian Expi293 cells) (ligand)
chain: B1 chain with N17Q
modifications: glycosylated at positions 36 and 81; position 45 is Q, not N-glycosylated

Kd [6]: 28 nM
Kd [7]: 212 nM
Kd [8]: 43 nM
Kd [9]: 6 nM
Kd [10]: ~30 nM
Kd [11]: 31 nM
IC50 [12]: 499 nM
IC50 [13]: 165 nM
Kd [14]: 37 nM
Kd [15]: 35 nM
Kd [16]: 52 nM
binding result [17]: no binding (tested: 2500 nM)
B3: irisin-His (wild-type, glycosylated recombinant irisin, His tagged, from mammalian cells) (ligand)
chain: DSPSAPVNVTVRHLKANSAVVSWDVLEDEVVIGFAISQQKKDVRMLRFIQEVNTTTRSCALWDLEEDTEYIVHVQAISIQGQSPASEPVLFKTPREAEKMASKNKDEVTMKEHHHHHHHHHHRDPLEVLFQ
modifications: N-glycosylated at N36, N45 and N81 (numbers as printed); Alexa Fluor 488, 555 or 647 label where the assay says so
notes: Monomer by SEC-MALS; also called irisin-mam; A488-irisin-His

Kd [18]: 256 nM
Kd [19]: 317 nM
Kd [20]: 299 nM
IC50 [21]: 1270 nM
IC50 [22]: 1190 nM
fold weaker affinity than irisin-mam [23]: ~8 fold
Kd [24]: 294 nM
B4: irisin-bac (non-glycosylated irisin dimer produced in bacteria) (ligand, UniProt Q8K4Z2 61-171, looked up)
chain: SPSAPVNVTVRHLKANSAVVSWDVLEDEVVIGFAISQQKKDVRMLRFIQEVNTTTRSCALWDLEEDTEYIVHVQAISIQGQSPASEPVLFKTPREAEKMASKNKDEVTMKE
modifications: Alexa Fluor 488 label where used as probe
notes: also called A488-irisin-bac

Kd [25]: 42 nM
IC50 [26]: 198 nM
B5: irisin-R75E (non-glycosylated irisin monomer mutant R75E from bacteria) (ligand, UniProt Q8K4Z2-1 30-140, looked up)
chain: B4 chain with R46E
notes: also called monomeric mutant

From patent publication US20260139023A1 (Dana-Farber, published 2026)
